System: mutant form of α-Gal A expressed in HEK-293 cells
Experiment: HEK assay (GLP HEK / Migalastat Amenability Assay): α-Gal A activity in lysates of transiently transfected HEK-293 cells incubated with or without 10 μM migalastat
Type: cell-based, human
Details: for Absolute increase (% WT): 10 μM migalastat versus baseline; for Relative increase: 10 μM migalastat α-Gal A activity relative to baseline; for 10 μM migalastat α-Gal A activity (% WT): 5 days; for 10 μM migalastat α-Gal A activity (% WT) / Baseline α-Gal A activity (% WT): percentage of baseline wild-type α-Gal A activity; for 10 μM migalastat α-Gal A activity (% WT) / Baseline α-Gal A activity (% WT) / Baseline α-Gal A activity / 10 μM migalastat α-Gal A activity: mean ± SEM; for Baseline α-Gal A activity (% WT): absence of migalastat; for Baseline α-Gal A activity / 10 μM migalastat α-Gal A activity: lysates of HEK-293 cells transfected with the mutant form; for Baseline α-Gal A activity: incubated 5 days in the absence of migalastat; for 10 μM migalastat α-Gal A activity: incubated 5 days with 10 μM migalastat
Experimental: Such mutations or variants are also referred to herein as “HEK assay amenable” mutations or variants.
The α-Gal A activity is expressed as the nmoles of free 4-MU released per milligram of protein per hour (nmol/mg/hr).
In Table 7, values for the mean±standard error of the mean (SEM) were calculated. nmol/mg/hr indicates “nmoles of free 4-MU released per mg of protein per hour”. WT indicates “wild-type”. NC indicates “not calculable”. N/A indicates “not applicable”.

Molecule	Absolute increase (% WT)	Relative increase	10 μM migalastat α-Gal A activity (% WT)	Baseline α-Gal A activity (% WT)	Baseline α-Gal A activity [nmol/mg/h]	10 μM migalastat α-Gal A activity [nmol/mg/h]
A108E (protein) MQLRNPELHLGCALALRFLALVSWDIPGARALDNGLARTPTMGWLHWERFMCNLDCQEEPDSCISEKLFMEMAELMVSEGWKDAGYEYLCIDDCWMAPQRDSEGRLQEDPQRFPHGIRQLANYVHSKGLKLGIYADVGNKTCAGFPGSFGYYDIDAQTFADWGVDLLKFDGCYCDSLENLADGYKHMSLALNRTGRSIVYSCEWPLYMWPFQKPNYTEIRQYCNHWRNFADIDDSWKSIKSILDWTSFNQERIVDVAGPGGWNDPDMLVIGNFGLSWNQQVTQMALWAIMAAPLFMSNDLRHISPQAKALLQDKDVIAINQDPLGKQGYQLRQGDNFEVWERPLSGLAWAVAMINRQEIGGPRSYTIAVASLGKGVACNPACFITQLLPVKRKLGFYEWTSRLRSHINPTGTVLLQLENTMQMSLKDLL	14.2	1.4	52.6 ± 4.6	38.4 ± 2.6	11629 ± 835	15648 ± 1305
D109E (protein) MQLRNPELHLGCALALRFLALVSWDIPGARALDNGLARTPTMGWLHWERFMCNLDCQEEPDSCISEKLFMEMAELMVSEGWKDAGYEYLCIDDCWMAPQRDSEGRLQAEPQRFPHGIRQLANYVHSKGLKLGIYADVGNKTCAGFPGSFGYYDIDAQTFADWGVDLLKFDGCYCDSLENLADGYKHMSLALNRTGRSIVYSCEWPLYMWPFQKPNYTEIRQYCNHWRNFADIDDSWKSIKSILDWTSFNQERIVDVAGPGGWNDPDMLVIGNFGLSWNQQVTQMALWAIMAAPLFMSNDLRHISPQAKALLQDKDVIAINQDPLGKQGYQLRQGDNFEVWERPLSGLAWAVAMINRQEIGGPRSYTIAVASLGKGVACNPACFITQLLPVKRKLGFYEWTSRLRSHINPTGTVLLQLENTMQMSLKDLL	9.3	1.2	50.6 ± 3.6	41.3 ± 3.4	13839 ± 1179	16926 ± 1156
P110T (protein) MQLRNPELHLGCALALRFLALVSWDIPGARALDNGLARTPTMGWLHWERFMCNLDCQEEPDSCISEKLFMEMAELMVSEGWKDAGYEYLCIDDCWMAPQRDSEGRLQADTQRFPHGIRQLANYVHSKGLKLGIYADVGNKTCAGFPGSFGYYDIDAQTFADWGVDLLKFDGCYCDSLENLADGYKHMSLALNRTGRSIVYSCEWPLYMWPFQKPNYTEIRQYCNHWRNFADIDDSWKSIKSILDWTSFNQERIVDVAGPGGWNDPDMLVIGNFGLSWNQQVTQMALWAIMAAPLFMSNDLRHISPQAKALLQDKDVIAINQDPLGKQGYQLRQGDNFEVWERPLSGLAWAVAMINRQEIGGPRSYTIAVASLGKGVACNPACFITQLLPVKRKLGFYEWTSRLRSHINPTGTVLLQLENTMQMSLKDLL	18.6	1.3	81.2 ± 6.5	62.6 ± 5.9	20474 ± 1528	26745 ± 1678
A108V (protein) MQLRNPELHLGCALALRFLALVSWDIPGARALDNGLARTPTMGWLHWERFMCNLDCQEEPDSCISEKLFMEMAELMVSEGWKDAGYEYLCIDDCWMAPQRDSEGRLQVDPQRFPHGIRQLANYVHSKGLKLGIYADVGNKTCAGFPGSFGYYDIDAQTFADWGVDLLKFDGCYCDSLENLADGYKHMSLALNRTGRSIVYSCEWPLYMWPFQKPNYTEIRQYCNHWRNFADIDDSWKSIKSILDWTSFNQERIVDVAGPGGWNDPDMLVIGNFGLSWNQQVTQMALWAIMAAPLFMSNDLRHISPQAKALLQDKDVIAINQDPLGKQGYQLRQGDNFEVWERPLSGLAWAVAMINRQEIGGPRSYTIAVASLGKGVACNPACFITQLLPVKRKLGFYEWTSRLRSHINPTGTVLLQLENTMQMSLKDLL	34.4	3.5	47.7 ± 4.6	13.3 ± 1.7	4914 ± 799	17249 ± 2284
F113V (protein) MQLRNPELHLGCALALRFLALVSWDIPGARALDNGLARTPTMGWLHWERFMCNLDCQEEPDSCISEKLFMEMAELMVSEGWKDAGYEYLCIDDCWMAPQRDSEGRLQADPQRVPHGIRQLANYVHSKGLKLGIYADVGNKTCAGFPGSFGYYDIDAQTFADWGVDLLKFDGCYCDSLENLADGYKHMSLALNRTGRSIVYSCEWPLYMWPFQKPNYTEIRQYCNHWRNFADIDDSWKSIKSILDWTSFNQERIVDVAGPGGWNDPDMLVIGNFGLSWNQQVTQMALWAIMAAPLFMSNDLRHISPQAKALLQDKDVIAINQDPLGKQGYQLRQGDNFEVWERPLSGLAWAVAMINRQEIGGPRSYTIAVASLGKGVACNPACFITQLLPVKRKLGFYEWTSRLRSHINPTGTVLLQLENTMQMSLKDLL	9.2	10.6	10.3 ± 1	1.1 ± 0.1	341 ± 41	3614 ± 596
D109Y (protein) MQLRNPELHLGCALALRFLALVSWDIPGARALDNGLARTPTMGWLHWERFMCNLDCQEEPDSCISEKLFMEMAELMVSEGWKDAGYEYLCIDDCWMAPQRDSEGRLQAYPQRFPHGIRQLANYVHSKGLKLGIYADVGNKTCAGFPGSFGYYDIDAQTFADWGVDLLKFDGCYCDSLENLADGYKHMSLALNRTGRSIVYSCEWPLYMWPFQKPNYTEIRQYCNHWRNFADIDDSWKSIKSILDWTSFNQERIVDVAGPGGWNDPDMLVIGNFGLSWNQQVTQMALWAIMAAPLFMSNDLRHISPQAKALLQDKDVIAINQDPLGKQGYQLRQGDNFEVWERPLSGLAWAVAMINRQEIGGPRSYTIAVASLGKGVACNPACFITQLLPVKRKLGFYEWTSRLRSHINPTGTVLLQLENTMQMSLKDLL	7.5	11.9	8.2 ± 1.1	0.7 ± 0.1	212 ± 30	2530 ± 415
D109H (protein) MQLRNPELHLGCALALRFLALVSWDIPGARALDNGLARTPTMGWLHWERFMCNLDCQEEPDSCISEKLFMEMAELMVSEGWKDAGYEYLCIDDCWMAPQRDSEGRLQAHPQRFPHGIRQLANYVHSKGLKLGIYADVGNKTCAGFPGSFGYYDIDAQTFADWGVDLLKFDGCYCDSLENLADGYKHMSLALNRTGRSIVYSCEWPLYMWPFQKPNYTEIRQYCNHWRNFADIDDSWKSIKSILDWTSFNQERIVDVAGPGGWNDPDMLVIGNFGLSWNQQVTQMALWAIMAAPLFMSNDLRHISPQAKALLQDKDVIAINQDPLGKQGYQLRQGDNFEVWERPLSGLAWAVAMINRQEIGGPRSYTIAVASLGKGVACNPACFITQLLPVKRKLGFYEWTSRLRSHINPTGTVLLQLENTMQMSLKDLL	30.0	2.2	54.6 ± 3.5	24.6 ± 1.7	7540 ± 684	16483 ± 1317
D109A (protein) MQLRNPELHLGCALALRFLALVSWDIPGARALDNGLARTPTMGWLHWERFMCNLDCQEEPDSCISEKLFMEMAELMVSEGWKDAGYEYLCIDDCWMAPQRDSEGRLQAAPQRFPHGIRQLANYVHSKGLKLGIYADVGNKTCAGFPGSFGYYDIDAQTFADWGVDLLKFDGCYCDSLENLADGYKHMSLALNRTGRSIVYSCEWPLYMWPFQKPNYTEIRQYCNHWRNFADIDDSWKSIKSILDWTSFNQERIVDVAGPGGWNDPDMLVIGNFGLSWNQQVTQMALWAIMAAPLFMSNDLRHISPQAKALLQDKDVIAINQDPLGKQGYQLRQGDNFEVWERPLSGLAWAVAMINRQEIGGPRSYTIAVASLGKGVACNPACFITQLLPVKRKLGFYEWTSRLRSHINPTGTVLLQLENTMQMSLKDLL	20.4	2.2	38 ± 3.7	17.5 ± 2.2	6345 ± 1034	13742 ± 1780
D109N (protein) MQLRNPELHLGCALALRFLALVSWDIPGARALDNGLARTPTMGWLHWERFMCNLDCQEEPDSCISEKLFMEMAELMVSEGWKDAGYEYLCIDDCWMAPQRDSEGRLQANPQRFPHGIRQLANYVHSKGLKLGIYADVGNKTCAGFPGSFGYYDIDAQTFADWGVDLLKFDGCYCDSLENLADGYKHMSLALNRTGRSIVYSCEWPLYMWPFQKPNYTEIRQYCNHWRNFADIDDSWKSIKSILDWTSFNQERIVDVAGPGGWNDPDMLVIGNFGLSWNQQVTQMALWAIMAAPLFMSNDLRHISPQAKALLQDKDVIAINQDPLGKQGYQLRQGDNFEVWERPLSGLAWAVAMINRQEIGGPRSYTIAVASLGKGVACNPACFITQLLPVKRKLGFYEWTSRLRSHINPTGTVLLQLENTMQMSLKDLL	36.5	8.4	41.5 ± 2.8	5 ± 0.3	1475 ± 83	12358 ± 973

Source: patent US11833164B2, “Methods of treating Fabry disease in patients having a mutation in the GLA gene” (Amicus Therapeutics, Inc., priority 2019, dated 2023)
